{"source": "paper PMC11480844", "about": "(2024); further: test concentration or dose not given here", "parents": {"B1": {"name": "H2-Kb / Ed9 (parent complex)", "chain 1": "AQSVTQPDARVTVSEGASLQLRCKYSYFGTPYLFWYVQYPRQGLQLLLKYYPGDPVVQGVNGFEAEFSKSNSSFHLRKASVHWSDWAVYFCAVSITGGYKVVFGSGTRLLVSP", "chain 2": "DSGVVQSPRHIIKEKGGRSVLTCIPISGHSNVVWYQQTLGKELKFLIQHYEKVERDKGFLPSRFSVQQFDDYHSEMNMSALELEDSAMYFCASSPRQSDYTFGSGTRLLVI", "chain 3": "not shown", "chain 4": "IQKTPQIQVYSRHPPENGKPNILNCYVTQFHPPHIEIQMLKNGKKIPKVEMSDMSFSKDWSFYILAHTEFTPTETDTYACRVKHDSMAEPKTVYWDRDM", "chain 5": "SIINFEKL"}, "B2": {"name": "H2-Kb / Ed23 (parent complex)", "chain 1": "QQKVQQSPESLTVSEGAMASLNCTFSDRSSDNFRWYRQHSGKGLEVLVSIFSDGEKEEGSFTAHLNRASLHVFLHIREPQPSDSALYLCAVRGFWTNKVVFGTGTRLQVLP", "chain 2": "AQTIHQWPVAEIKAVGSPLSLGCTIKGKSSPNLYWYWQATGGTLQQLFYSITVGQVESVVQLNLSASRPKDDQFILSTEKLLLSHSGFYLCAWSPRQSSYEQYFGPGTRLTVL", "chain 3": "not shown", "chain 4": "B1 chain 4", "chain 5": "SIINFEKL"}}, "data": [{"variants_of": "B1", "assay": "% of reporter cells activated (NFAT-GFP), raw", "values": [{"variant": "chain 5 S1T", "ratio to parent": 0.381}, {"variant": "chain 5 E6L", "ratio to parent": 0.0232}, {"variant": "chain 5 K7Q", "ratio to parent": 0.798}, {"variant": "chain 5 S1M", "ratio to parent": 0.0181}, {"variant": "chain 5 N4W", "ratio to parent": 0.0561}, {"variant": "chain 5 S1Q", "ratio to parent": 0.0362}, {"variant": "chain 5 S1W", "ratio to parent": 0.126}, {"variant": "chain 5 F5D", "ratio to parent": 0.945}, {"variant": "chain 5 F5T", "ratio to parent": 1.38}, {"variant": "chain 5 K7R", "ratio to parent": 0.982}, {"variant": "chain 5 N4G", "ratio to parent": 0.0077}, {"variant": "chain 5 K7W", "ratio to parent": 0.781}, {"variant": "chain 5 N4H", "ratio to parent": 0.294}, {"variant": "chain 5 L8R", "ratio to parent": 1.13}, {"variant": "chain 5 K7F", "ratio to parent": 0.296}, {"variant": "chain 5 S1H", "ratio to parent": 0.543}, {"variant": "chain 5 N4Y", "ratio to parent": 0.0572}, {"variant": "chain 5 I2A", "ratio to parent": 1.21}, {"variant": "chain 5 I3D", "ratio to parent": 0.484}, {"variant": "chain 5 K7D", "ratio to parent": 0.294}, {"variant": "chain 5 N4R", "ratio to parent": 0.572}, {"variant": "chain 5 E6I", "ratio to parent": 0.449}, {"variant": "chain 5 E6R", "ratio to parent": 0.329}, {"variant": "chain 5 K7H", "ratio to parent": 0.723}, {"variant": "chain 5 L8V", "ratio to parent": 0.958}, {"variant": "chain 5 I3T", "ratio to parent": 0.43}, {"variant": "chain 5 E6P", "ratio to parent": 0.155}, {"variant": "chain 5 I2S", "ratio to parent": 1.18}, {"variant": "chain 5 I2C", "ratio to parent": 1.22}, {"variant": "chain 5 I3N", "ratio to parent": 0.336}, {"variant": "chain 5 L8Q", "ratio to parent": 1.18}, {"variant": "chain 5 I2K", "ratio to parent": 1}, {"variant": "chain 5 N4L", "ratio to parent": 0.608}, {"variant": "chain 5 F5P", "ratio to parent": 0.552}, {"variant": "chain 5 I3K", "ratio to parent": 0.907}, {"variant": "chain 5 I3P", "ratio to parent": 0.819}, {"variant": "chain 5 K7L", "ratio to parent": 0.719}, {"variant": "chain 5 I2W", "ratio to parent": 0.799}, {"variant": "chain 5 F5R", "ratio to parent": 1.31}, {"variant": "chain 5 E6T", "ratio to parent": 0.702}, {"variant": "chain 5 E6K", "ratio to parent": 0.795}, {"variant": "chain 5 N4C", "ratio to parent": 0.0443}, {"variant": "chain 5 N4I", "ratio to parent": 0.41}, {"variant": "chain 5 K7N", "ratio to parent": 0.332}, {"variant": "chain 5 I3G", "ratio to parent": 0.446}, {"variant": "chain 5 L8A", "ratio to parent": 1.08}, {"variant": "chain 5 K7C", "ratio to parent": 0.432}, {"variant": "chain 5 I3W", "ratio to parent": 0.753}, {"variant": "chain 5 E6G", "ratio to parent": 0.597}, {"variant": "chain 5 I3R", "ratio to parent": 0.385}, {"variant": "chain 5 N4K", "ratio to parent": 0.364}, {"variant": "chain 5 E6A", "ratio to parent": 0.437}, {"variant": "chain 5 F5A", "ratio to parent": 1.33}, {"variant": "chain 5 N4M", "ratio to parent": 0.00718}, {"variant": "chain 5 F5C", "ratio to parent": 1.26}, {"variant": "chain 5 I2G", "ratio to parent": 1.06}, {"variant": "chain 5 S1K", "ratio to parent": 0.424}, {"variant": "chain 5 L8E", "ratio to parent": 0.892}, {"variant": "chain 5 L8M", "ratio to parent": 1.14}, {"variant": "chain 5 K7Y", "ratio to parent": 0.668}, {"variant": "chain 5 I2T", "ratio to parent": 1.22}, {"variant": "chain 5 S1Y", "ratio to parent": 0.802}, {"variant": "chain 5 S1E", "ratio to parent": 0.0209}, {"variant": "chain 5 K7S", "ratio to parent": 0.969}, {"variant": "chain 5 L8D", "ratio to parent": 0.803}, {"variant": "chain 5 F5I", "ratio to parent": 1.14}, {"variant": "chain 5 E6F", "ratio to parent": 0.0676}, {"variant": "chain 5 E6V", "ratio to parent": 0.409}, {"variant": "chain 5 F5W", "ratio to parent": 1.22}, {"variant": "chain 5 F5G", "ratio to parent": 1.05}, {"variant": "chain 5 I3M", "ratio to parent": 0.914}, {"variant": "chain 5 S1N", "ratio to parent": 0.0383}, {"variant": "chain 5 K7G", "ratio to parent": 0.473}, {"variant": "chain 5 I3Q", "ratio to parent": 0.728}, {"variant": "chain 5 F5K", "ratio to parent": 1.09}, {"variant": "chain 5 L8I", "ratio to parent": 1.17}, {"variant": "chain 5 F5N", "ratio to parent": 1.15}, {"variant": "chain 5 L8S", "ratio to parent": 0.899}, {"variant": "chain 5 F5E", "ratio to parent": 1.03}, {"variant": "chain 5 I2Q", "ratio to parent": 0.82}, {"variant": "chain 5 F5S", "ratio to parent": 1.31}, {"variant": "chain 5 E6Y", "ratio to parent": 0.0945}, {"variant": "chain 5 L8K", "ratio to parent": 1.09}, {"variant": "chain 5 L8T", "ratio to parent": 1.09}, {"variant": "chain 5 I2F", "ratio to parent": 1.13}, {"variant": "chain 5 N4A", "ratio to parent": 0.0077}, {"variant": "chain 5 I3Y", "ratio to parent": 0.0606}, {"variant": "chain 5 N4E", "ratio to parent": 0.00953}, {"variant": "chain 5 K7M", "ratio to parent": 0.546}, {"variant": "chain 5 N4P", "ratio to parent": 0.0766}, {"variant": "chain 5 L8G", "ratio to parent": 1}, {"variant": "chain 5 L8Y", "ratio to parent": 1.23}, {"variant": "chain 5 N4F", "ratio to parent": 0.012}, {"variant": "chain 5 K7T", "ratio to parent": 0.957}, {"variant": "chain 5 S1V", "ratio to parent": 0.0112}, {"variant": "chain 5 L8F", "ratio to parent": 1.14}, {"variant": "chain 5 L8N", "ratio to parent": 0.883}, {"variant": "chain 5 F5Y", "ratio to parent": 1.22}, {"variant": "chain 5 S1I", "ratio to parent": 0.0106}, {"variant": "chain 5 N4Q", "ratio to parent": 0.0236}, {"variant": "chain 5 K7E", "ratio to parent": 0.226}, {"variant": "chain 5 S1D", "ratio to parent": 0.125}, {"variant": "chain 5 I3A", "ratio to parent": 0.184}, {"variant": "chain 5 N4S", "ratio to parent": 0.0154}, {"variant": "chain 5 S1P", "ratio to parent": 0.0373}, {"variant": "chain 5 N4V", "ratio to parent": 0.0308}, {"variant": "chain 5 L8W", "ratio to parent": 1}]}, {"variants_of": "B2", "assay": "% of reporter cells activated (NFAT-GFP), raw", "values": [{"variant": "chain 5 L8P", "ratio to parent": 1.24}, {"variant": "chain 5 K7M", "ratio to parent": 1.12}, {"variant": "chain 5 S1G", "ratio to parent": 0.896}, {"variant": "chain 5 K7V", "ratio to parent": 0.48}, {"variant": "chain 5 L8W", "ratio to parent": 0.934}, {"variant": "chain 5 S1D", "ratio to parent": 0.735}, {"variant": "chain 5 I2G", "ratio to parent": 0.952}, {"variant": "chain 5 I3K", "ratio to parent": 0.952}, {"variant": "chain 5 I3A", "ratio to parent": 1.06}, {"variant": "chain 5 K7N", "ratio to parent": 0.785}, {"variant": "chain 5 K7F", "ratio to parent": 0.0793}, {"variant": "chain 5 S1F", "ratio to parent": 0.207}, {"variant": "chain 5 K7W", "ratio to parent": 0.975}, {"variant": "chain 5 K7H", "ratio to parent": 0.333}, {"variant": "chain 5 I2C", "ratio to parent": 1.38}, {"variant": "chain 5 I2E", "ratio to parent": 1.39}, {"variant": "chain 5 S1N", "ratio to parent": 0.27}, {"variant": "chain 5 N4R", "ratio to parent": 1.22}, {"variant": "chain 5 S1K", "ratio to parent": 0.558}, {"variant": "chain 5 E6A", "ratio to parent": 0.157}, {"variant": "chain 5 I2N", "ratio to parent": 1.49}, {"variant": "chain 5 F5I", "ratio to parent": 1.25}, {"variant": "chain 5 N4S", "ratio to parent": 0.42}, {"variant": "chain 5 N4M", "ratio to parent": 0.269}, {"variant": "chain 5 S1I", "ratio to parent": 0.218}, {"variant": "chain 5 E6T", "ratio to parent": 0.0505}, {"variant": "chain 5 I2W", "ratio to parent": 1.07}, {"variant": "chain 5 N4W", "ratio to parent": 1.13}, {"variant": "chain 5 E6N", "ratio to parent": 0.0348}, {"variant": "chain 5 I2V", "ratio to parent": 1.42}, {"variant": "chain 5 L8K", "ratio to parent": 1.23}, {"variant": "chain 5 S1Y", "ratio to parent": 0.886}, {"variant": "chain 5 L8V", "ratio to parent": 0.856}, {"variant": "chain 5 N4D", "ratio to parent": 0.0424}, {"variant": "chain 5 F5H", "ratio to parent": 1.37}, {"variant": "chain 5 S1P", "ratio to parent": 1.46}, {"variant": "chain 5 E6H", "ratio to parent": 0.551}, {"variant": "chain 5 N4H", "ratio to parent": 1.04}, {"variant": "chain 5 I3V", "ratio to parent": 1.41}, {"variant": "chain 5 E6K", "ratio to parent": 1.14}, {"variant": "chain 5 I2H", "ratio to parent": 1.36}, {"variant": "chain 5 I3Y", "ratio to parent": 0.17}, {"variant": "chain 5 L8G", "ratio to parent": 1.11}]}]}
